According to the supplement of paper PMC7877785:
± gives the uncertainty stated by the source.

Experiment: self-splicing fitness, log relative to wild type (ln ratio); higher = more splicing; Tetrahymena group I intron in knt gene, E. coli kanamycin selection, DiMSum; sequences stand for … in CUCUCU…GGAGGGAAAAGUUAUCAGGCAUGCACCUGGUAGCUAGUCUUUAAACCAAUAGAUUGCAUCGGUUUAAAAGGCAAGACCGUCAAAUUGCGGGAAAGGGGUCAACAGCCGUUCAGUACCAAGUCUCAGGGGAAACUUUGAGAUGGCCUUGCAAAGGGUAUGGUAAUAAGCUGACGGACAUGGUCCUAACCACGCAGCCAAGUCCUAAGUCAACAGAUCUUCUGUUGAUAUGGAUGCAGUUCACAGACUAAAUGUCGGUCGGGGAAGAUGUAUUCUUCUCAUAAGAUAUAGUCGGACCUCUCCUUAAUGGGAGCUAGCGGAUGAAGUGAUGCAACACUGGAGCCGCUGGGAACUAAUUUGUAUGCGAAAGUAUAUUGAUUAGUUUUGGAGUACUCGUGGUCG
How it was run: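 Colonies from six replicate transformations of E. coli BL21(DE3) were pooled and amplicon-sequenced on an Illumina HiSeq 2500. The library placed an intron with all eight P1ex-region nucleotides randomised inside the knt kanamycin-resistance gene on pET-22b(+), and cells grew overnight at 37°C or 30°C on LB agar with or without 25 μg/mL kanamycin (plus 100 μg/mL carbenicillin, 50 μM IPTG, 0.2% rhamnose). Fitness is the DiMSum error-weighted combination of wild-type-normalised replicate fold changes, kanamycin versus none.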

Row | Sequence | self-splicing fitness (ln) (30 °C) | self-splicing fitness (ln) (37 °C)
1 | AGUAAGCAAUAUUACGACGU | -0.0587 ± 0.09 | -0.132 ± 0.087
2 | AGUAAGCAAUAUUACGAGUA | -2.91 ± 0.26 | -0.922 ± 0.16
3 | AGUAAGCAAUAUUACGCACC | -0.949 ± 0.24 | -0.969 ± 0.25
4 | AGUAAGCAAUAUUACGCGCA | -1.02 ± 0.16 | 0.0785 ± 0.16
5 | AGUAAGCAAUAUUACGCUAG | -2.83 ± 0.24 | -2.39 ± 0.23
6 | AGUAAGCAAUAUUACGGCGA | -0.491 ± 0.12 | 0.468 ± 0.17
7 | AGUAAGCAAUAUUACGUCAC | -3.26 ± 0.19 | -2.11 ± 0.17
8 | AGUAAGCAAUAUUACGUCCA | -0.878 ± 0.12 | -0.0078 ± 0.13
9 | AGUAAGCAAUAUUACGUGAU | -3.15 ± 0.2 | -2.33 ± 0.2
10 | AGUAAGCAAUAUUACGUGGG | -3.66 ± 0.26 | -1.89 ± 0.17
11 | AGUAAGCAAUAUUACGUUUU | -3.28 ± 0.14 | -2.19 ± 0.16
12 | AGUCAGCAAUAUUACGAAAG | -3.43 ± 0.23 | -1.45 ± 0.2
13 | AGUCAGCAAUAUUACGAAAU | -1.76 ± 0.078 | -0.398 ± 0.094
14 | AGUCAGCAAUAUUACGAACU | -0.853 ± 0.089 | 0.15 ± 0.11
15 | AGUCAGCAAUAUUACGACCG | 0.0414 ± 0.095 | 0.085 ± 0.13
16 | AGUCAGCAAUAUUACGACGA | -0.25 ± 0.07 | -0.283 ± 0.11
17 | AGUCAGCAAUAUUACGACUA | -0.831 ± 0.16 | 0.0945 ± 0.14
18 | AGUCAGCAAUAUUACGACUC | -3.14 ± 0.25 | -2.21 ± 0.24
19 | AGUCAGCAAUAUUACGACUG | -0.879 ± 0.055 | -0.421 ± 0.069
20 | AGUCAGCAAUAUUACGAGAA |  | -1.35 ± 0.36
21 | AGUCAGCAAUAUUACGAUGG | -1.55 ± 0.062 | -0.364 ± 0.083
22 | AGUCAGCAAUAUUACGCCGU | -1.26 ± 0.15 | -0.55 ± 0.21
23 | AGUCAGCAAUAUUACGCGGC | -3.02 ± 0.29 | 
24 | AGUCAGCAAUAUUACGGAAG | -3.36 ± 0.17 | -1.67 ± 0.16
25 | AGUCAGCAAUAUUACGGCGA | -0.359 ± 0.091 | 0.00759 ± 0.14

Row | Sequence | self-splicing fitness (ln) (30 °C) | self-splicing fitness (ln) (37 °C)
26 | AGUCAGCAAUAUUACGGGCG | -0.963 ± 0.093 | 0.189 ± 0.13
27 | AGUCAGCAAUAUUACGGGGA | -3.08 ± 0.19 | -1.42 ± 0.18
28 | AGUCAGCAAUAUUACGGUGA | -1.87 ± 0.12 | -0.192 ± 0.096
29 | AGUCAGCAAUAUUACGUACA | -0.657 ± 0.074 | 0.284 ± 0.11
30 | AGUCAGCAAUAUUACGUGAC | -2.96 ± 0.24 | -2.86 ± 0.2
31 | AGUCAGCAAUAUUACGUGCA | -0.269 ± 0.073 | -0.501 ± 0.099
32 | AGUCAGCAAUAUUACGUGUA | -3.11 ± 0.14 | -0.76 ± 0.086
33 | AGUCAGCAAUAUUACGUUGG | -2.9 ± 0.17 | -1.83 ± 0.18
34 | AGUGAGCAAUAUUACGAAGU | -2.49 ± 0.26 | 0.907 ± 0.22
35 | AGUGAGCAAUAUUACGACGG | -3.25 ± 0.28 | -0.814 ± 0.22
36 | AGUGAGCAAUAUUACGAGCA | -0.561 ± 0.11 | -0.436 ± 0.11
37 | AGUGAGCAAUAUUACGAUUA | -2.67 ± 0.3 | -1.47 ± 0.37
38 | AGUGAGCAAUAUUACGCCAG |  | -2.12 ± 0.45
39 | AGUGAGCAAUAUUACGCGAG | -2.91 ± 0.49 | 
40 | AGUGAGCAAUAUUACGCGCC | -2.21 ± 0.23 | 
41 | AGUGAGCAAUAUUACGGAAC | -2.5 ± 0.43 | 
42 | AGUGAGCAAUAUUACGGACU | -1.28 ± 0.12 | -0.761 ± 0.13
43 | AGUGAGCAAUAUUACGUAUC | -3.05 ± 0.34 | 
44 | AGUGAGCAAUAUUACGUCCG |  | -0.894 ± 0.22
45 | AGUGAGCAAUAUUACGUCGG | -3.07 ± 0.31 | -1.97 ± 0.36
46 | AGUGAGCAAUAUUACGUCUU | -1.07 ± 0.082 | -1.31 ± 0.1
47 | AGUGAGCAAUAUUACGUGAG | -3.58 ± 0.31 | -0.839 ± 0.19
48 | AGUGAGCAAUAUUACGUGCU | -1.86 ± 0.28 | 
49 | AGUGAGCAAUAUUACGUGGA | -2.63 ± 0.32 | -1.49 ± 0.28
50 | AGUGAGCAAUAUUACGUGUA | -3.6 ± 0.28 | -2.84 ± 0.23

Row | Sequence | self-splicing fitness (ln) (30 °C) | self-splicing fitness (ln) (37 °C)
51 | AGUGAGCAAUAUUACGUUAG | -2.97 ± 0.19 | -2.03 ± 0.17
52 | AGUGAGCAAUAUUACGUUCG | -3.26 ± 0.16 | -2.22 ± 0.14
53 | AGUGAGCAAUAUUACGUUUU | -3.26 ± 0.14 | -2.57 ± 0.15
54 | AGUUAGCAAUAUUACGAAGA | -1.18 ± 0.4 | -2.26 ± 0.34
55 | AGUUAGCAAUAUUACGAAUA | -1.43 ± 0.14 | -0.681 ± 0.21
56 | AGUUAGCAAUAUUACGAAUG | -2.33 ± 0.16 | -1.56 ± 0.17
57 | AGUUAGCAAUAUUACGAGAU | -2.15 ± 0.18 | -1.17 ± 0.16
58 | AGUUAGCAAUAUUACGAGCC | -1.84 ± 0.13 | -1.12 ± 0.13
59 | AGUUAGCAAUAUUACGAUGG | -2.45 ± 0.17 | -1.51 ± 0.19
60 | AGUUAGCAAUAUUACGAUUA |  | -0.435 ± 0.33
61 | AGUUAGCAAUAUUACGAUUG | -3.3 ± 0.27 | -1.84 ± 0.24
62 | AGUUAGCAAUAUUACGCAAC | -2.75 ± 0.24 | -3.1 ± 0.37
63 | AGUUAGCAAUAUUACGCAAG | -2.63 ± 0.12 | -1.24 ± 0.13
64 | AGUUAGCAAUAUUACGCAUC | -3.63 ± 0.43 | -1.68 ± 0.23
65 | AGUUAGCAAUAUUACGCCAA |  | -1.58 ± 0.43
66 | AGUUAGCAAUAUUACGCGAG | -2.52 ± 0.22 | -1.52 ± 0.21
67 | AGUUAGCAAUAUUACGCUUA | -1.3 ± 0.15 | -0.343 ± 0.16
68 | AGUUAGCAAUAUUACGGAAA | -2.89 ± 0.35 | -2.55 ± 0.44
69 | AGUUAGCAAUAUUACGGAAU | -3.73 ± 0.46 | -2 ± 0.43
70 | AGUUAGCAAUAUUACGGCGA | 0.115 ± 0.16 | 0.709 ± 0.16
71 | AGUUAGCAAUAUUACGGCGG | -0.53 ± 0.085 | -0.514 ± 0.13
72 | AGUUAGCAAUAUUACGGCUU | -2.22 ± 0.23 | -1.04 ± 0.22
73 | AGUUAGCAAUAUUACGGGCA | -0.103 ± 0.13 | -0.162 ± 0.15
74 | AGUUAGCAAUAUUACGGUAA | -2.21 ± 0.17 | -1.53 ± 0.12
75 | AGUUAGCAAUAUUACGGUGG | -1.16 ± 0.18 | -2.42 ± 0.27

Row | Sequence | self-splicing fitness (ln) (30 °C) | self-splicing fitness (ln) (37 °C)
76 | AGUUAGCAAUAUUACGUACC | -0.585 ± 0.24 | -0.376 ± 0.28
77 | AGUUAGCAAUAUUACGUGUC | -2.09 ± 0.33 | -1.42 ± 0.36
78 | AUAAAGCAAUAUUACGAAUA | -0.578 ± 0.14 | -0.302 ± 0.26
79 | AUAAAGCAAUAUUACGAGAG | -2.29 ± 0.18 | -1.03 ± 0.15
80 | AUAAAGCAAUAUUACGAGGA | -3.28 ± 0.23 | -1.74 ± 0.19
81 | AUAAAGCAAUAUUACGAGUU | -1.9 ± 0.081 | -0.509 ± 0.085
82 | AUAAAGCAAUAUUACGAUCA | 0.0672 ± 0.054 | 0.203 ± 0.077
83 | AUAAAGCAAUAUUACGAUCU | 0.387 ± 0.11 | 0.308 ± 0.097
84 | AUAAAGCAAUAUUACGAUUC | -0.837 ± 0.085 | -0.228 ± 0.097
85 | AUAAAGCAAUAUUACGCCUC | -0.875 ± 0.14 | -0.532 ± 0.2
86 | AUAAAGCAAUAUUACGCGCG | -0.354 ± 0.09 | 0.713 ± 0.12
87 | AUAAAGCAAUAUUACGCUAC | -3.14 ± 0.25 | -2.99 ± 0.33
88 | AUAAAGCAAUAUUACGGGAA | -1.08 ± 0.097 | -0.426 ± 0.14
89 | AUAAAGCAAUAUUACGUAAC | -1.92 ± 0.13 | -0.901 ± 0.17
90 | AUAAAGCAAUAUUACGUAUU | -2.73 ± 0.12 | -1.79 ± 0.13
91 | AUAAAGCAAUAUUACGUCUC | -1.4 ± 0.093 | -0.541 ± 0.13
92 | AUAAAGCAAUAUUACGUCUU | 0.183 ± 0.05 | 0.29 ± 0.073
93 | AUAAAGCAAUAUUACGUUCG | -0.321 ± 0.085 | 0.17 ± 0.13
94 | AUAAAGCAAUAUUACGUUGA | -2.1 ± 0.095 | -1.77 ± 0.13
95 | AUACAGCAAUAUUACGAACG | -0.79 ± 0.12 | -1.44 ± 0.17
96 | AUACAGCAAUAUUACGAAUU | -2.71 ± 0.15 | -1.16 ± 0.14
97 | AUACAGCAAUAUUACGACCC | -1.1 ± 0.21 | -0.179 ± 0.17
98 | AUACAGCAAUAUUACGAGUC | -3.23 ± 0.19 | -2.57 ± 0.19
